Test results taken from IntAct's records for PubMed 18354501.
Each block holds one substance with its values, some of them ahead of it.

How the values were obtained:
[1] = target: t2ea_human GTF2E1 (UniProt P29083)
[2] = target: t2ea_human GTF2E1 (UniProt P29083); remark: listed apart in the source
[3] = target: t2ea_human GTF2E1 (UniProt P29083); remark: listed apart in the source
[4] = target: t2ea_human GTF2E1 (UniProt P29083); remark: listed apart in the source
[5] = target: t2ea_human GTF2E1 (UniProt P29083); remark: listed apart in the source
[6] = target: t2ea_human GTF2E1 (UniProt P29083); remark: listed apart in the source

Sequence of t2ea_human GTF2E1 (P29083 whole entry): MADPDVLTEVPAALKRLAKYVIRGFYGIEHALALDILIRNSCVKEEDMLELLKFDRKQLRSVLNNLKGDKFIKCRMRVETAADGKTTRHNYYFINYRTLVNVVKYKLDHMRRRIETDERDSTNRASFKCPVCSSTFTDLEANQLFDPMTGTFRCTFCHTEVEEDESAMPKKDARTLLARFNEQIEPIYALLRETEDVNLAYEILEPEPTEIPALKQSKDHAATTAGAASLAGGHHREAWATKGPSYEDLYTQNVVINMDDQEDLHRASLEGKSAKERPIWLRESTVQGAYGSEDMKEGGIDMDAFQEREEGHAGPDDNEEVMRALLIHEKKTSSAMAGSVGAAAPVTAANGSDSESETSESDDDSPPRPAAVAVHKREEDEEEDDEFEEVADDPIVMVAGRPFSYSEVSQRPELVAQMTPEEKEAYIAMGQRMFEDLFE
Sequence of General transcription factor IIH subunit 1 (Homo sapiens), P32780 Q66A (P32780 whole entry Q66A): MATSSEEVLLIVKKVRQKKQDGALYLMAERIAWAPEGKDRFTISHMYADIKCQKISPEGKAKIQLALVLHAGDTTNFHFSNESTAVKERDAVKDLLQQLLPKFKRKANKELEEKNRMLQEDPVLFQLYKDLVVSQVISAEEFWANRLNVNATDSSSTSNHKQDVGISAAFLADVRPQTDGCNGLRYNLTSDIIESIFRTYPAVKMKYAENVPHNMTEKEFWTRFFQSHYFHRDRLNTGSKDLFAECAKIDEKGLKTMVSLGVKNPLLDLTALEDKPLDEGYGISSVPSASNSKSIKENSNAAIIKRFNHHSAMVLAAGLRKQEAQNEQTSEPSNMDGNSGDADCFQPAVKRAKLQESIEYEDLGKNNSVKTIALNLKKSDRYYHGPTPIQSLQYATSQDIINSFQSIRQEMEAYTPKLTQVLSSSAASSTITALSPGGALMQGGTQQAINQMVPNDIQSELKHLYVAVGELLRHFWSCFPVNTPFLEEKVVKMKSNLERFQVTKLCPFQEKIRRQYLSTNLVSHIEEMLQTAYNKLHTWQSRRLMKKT
Sequence of General transcription factor IIH subunit 1 (Homo sapiens), P32780 V68A (P32780 whole entry V68A): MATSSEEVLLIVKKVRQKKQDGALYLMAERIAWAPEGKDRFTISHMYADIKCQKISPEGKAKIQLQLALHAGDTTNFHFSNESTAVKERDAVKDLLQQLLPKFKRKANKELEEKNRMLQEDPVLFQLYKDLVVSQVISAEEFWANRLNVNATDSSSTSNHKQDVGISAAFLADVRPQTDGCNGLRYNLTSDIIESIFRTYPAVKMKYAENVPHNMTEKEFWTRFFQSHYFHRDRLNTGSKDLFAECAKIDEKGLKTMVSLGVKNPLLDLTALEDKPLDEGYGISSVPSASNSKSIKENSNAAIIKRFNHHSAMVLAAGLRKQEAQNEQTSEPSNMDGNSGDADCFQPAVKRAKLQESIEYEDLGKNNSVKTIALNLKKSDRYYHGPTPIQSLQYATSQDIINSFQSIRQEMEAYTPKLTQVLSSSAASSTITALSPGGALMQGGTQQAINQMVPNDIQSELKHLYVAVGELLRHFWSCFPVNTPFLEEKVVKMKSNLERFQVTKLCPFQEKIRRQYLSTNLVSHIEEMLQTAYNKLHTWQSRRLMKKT
Sequence of General transcription factor IIH subunit 1 (Homo sapiens), P32780 K54A (P32780 whole entry K54A): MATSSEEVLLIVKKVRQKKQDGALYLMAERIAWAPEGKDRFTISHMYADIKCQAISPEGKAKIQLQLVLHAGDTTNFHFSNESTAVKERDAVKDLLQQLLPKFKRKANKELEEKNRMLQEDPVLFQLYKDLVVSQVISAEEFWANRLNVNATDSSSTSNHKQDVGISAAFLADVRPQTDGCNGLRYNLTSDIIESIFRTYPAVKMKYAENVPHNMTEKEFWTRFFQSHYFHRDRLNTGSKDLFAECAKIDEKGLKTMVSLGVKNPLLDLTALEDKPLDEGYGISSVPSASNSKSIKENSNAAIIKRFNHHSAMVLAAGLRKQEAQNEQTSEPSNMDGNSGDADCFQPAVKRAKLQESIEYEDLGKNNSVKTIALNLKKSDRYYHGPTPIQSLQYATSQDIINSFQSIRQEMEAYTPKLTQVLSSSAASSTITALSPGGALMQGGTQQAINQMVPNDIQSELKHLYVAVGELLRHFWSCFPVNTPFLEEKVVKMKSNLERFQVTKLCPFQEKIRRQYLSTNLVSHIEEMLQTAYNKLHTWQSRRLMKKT
Sequence of General transcription factor IIH subunit 1 (Homo sapiens), P32780 K19A (P32780 whole entry K19A): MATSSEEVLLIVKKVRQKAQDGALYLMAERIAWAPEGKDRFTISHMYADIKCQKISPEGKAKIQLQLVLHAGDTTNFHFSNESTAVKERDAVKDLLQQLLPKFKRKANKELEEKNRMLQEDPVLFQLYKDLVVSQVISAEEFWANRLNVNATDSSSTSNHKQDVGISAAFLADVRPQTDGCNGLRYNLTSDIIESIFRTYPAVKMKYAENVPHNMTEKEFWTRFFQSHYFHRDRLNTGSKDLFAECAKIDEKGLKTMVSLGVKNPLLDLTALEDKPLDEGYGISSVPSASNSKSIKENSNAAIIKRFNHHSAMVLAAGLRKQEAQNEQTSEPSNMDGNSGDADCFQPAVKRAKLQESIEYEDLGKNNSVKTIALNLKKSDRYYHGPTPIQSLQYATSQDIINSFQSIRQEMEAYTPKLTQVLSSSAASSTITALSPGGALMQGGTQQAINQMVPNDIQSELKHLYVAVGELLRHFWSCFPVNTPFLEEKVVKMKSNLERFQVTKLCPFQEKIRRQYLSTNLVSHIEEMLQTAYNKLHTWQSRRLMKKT
Sequence of General transcription factor IIH subunit 1 (Homo sapiens), P32780 K18A (P32780 whole entry K18A): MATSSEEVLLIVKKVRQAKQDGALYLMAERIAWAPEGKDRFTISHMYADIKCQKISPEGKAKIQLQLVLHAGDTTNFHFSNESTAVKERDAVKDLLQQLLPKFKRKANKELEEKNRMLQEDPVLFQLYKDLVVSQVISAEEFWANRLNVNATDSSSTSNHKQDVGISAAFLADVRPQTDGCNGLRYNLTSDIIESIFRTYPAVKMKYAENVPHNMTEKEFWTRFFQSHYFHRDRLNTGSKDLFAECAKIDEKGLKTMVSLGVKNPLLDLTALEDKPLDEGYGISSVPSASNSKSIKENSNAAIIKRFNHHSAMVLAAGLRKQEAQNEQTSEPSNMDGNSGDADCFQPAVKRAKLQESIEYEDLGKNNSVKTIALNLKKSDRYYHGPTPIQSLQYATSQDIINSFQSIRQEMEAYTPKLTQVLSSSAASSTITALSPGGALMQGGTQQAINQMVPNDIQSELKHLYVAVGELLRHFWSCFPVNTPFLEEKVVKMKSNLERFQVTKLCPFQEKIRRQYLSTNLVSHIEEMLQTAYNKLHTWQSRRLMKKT

Substance: General transcription factor IIH subunit 1 (Homo sapiens), P32780 V68A
- effect of a mutation on the interaction [1]: decreasing interaction

Substance: General transcription factor IIH subunit 1 (Homo sapiens), P32780 K18A
- effect of a mutation on the interaction [4]: decreasing interaction

Continued, values first:

- effect of a mutation on the interaction [2]: disrupting interaction
Substance: General transcription factor IIH subunit 1 (Homo sapiens), P32780 K19A

- effect of a mutation on the interaction [3]: disrupting interaction
Substance: General transcription factor IIH subunit 1 (Homo sapiens), P32780 K54A

- effect of a mutation on the interaction [5]: disrupting interaction
- effect of a mutation on the interaction [6]: decreasing interaction
Substance: General transcription factor IIH subunit 1 (Homo sapiens), P32780 Q66A
